The target of test [1] is T1, recombinant human TfR-1 (human, UniProt P02786 89-760).
T1 construct: extracellular domain; also called hTfR1; human transferrin receptor-1
Description: phage ELISA. On the procedure:
(§1) After the third round of selection, instead of pooling bacterial colonies, individual phagemid clones were grown in 1 ml of 2TY medium containing glucose and ampicillin in 96-well blocks and used to rescue the phages. After an overnight culturing, bacteria were spun down and an aliquot of the phage supernatant was sent for Sanger sequencing (Genewiz); VNAR CDR3 sequences were identified using BioEdit (a sequence alignment editor). Another aliquot was blocked with 2.5% milk for phage ELISAs. High-binding ELISA plates (Greiner) were coated with 1 μg/ml of recombinant human or mouse TfR-1. The plates were then blocked with 2.5% milk in PBST. Blocked phages were added to the blocked plates and the VNAR-phage clones binding to the antigens were detected with HRP-labelled anti-M13 coat protein antibodies (Sino Biological), and chromogenic TMB substrate (KLM)
On the technique in general: An ELISA detects its analyte on a solid surface through an enzyme-linked reagent.
T1 sequence (P02786 89-760): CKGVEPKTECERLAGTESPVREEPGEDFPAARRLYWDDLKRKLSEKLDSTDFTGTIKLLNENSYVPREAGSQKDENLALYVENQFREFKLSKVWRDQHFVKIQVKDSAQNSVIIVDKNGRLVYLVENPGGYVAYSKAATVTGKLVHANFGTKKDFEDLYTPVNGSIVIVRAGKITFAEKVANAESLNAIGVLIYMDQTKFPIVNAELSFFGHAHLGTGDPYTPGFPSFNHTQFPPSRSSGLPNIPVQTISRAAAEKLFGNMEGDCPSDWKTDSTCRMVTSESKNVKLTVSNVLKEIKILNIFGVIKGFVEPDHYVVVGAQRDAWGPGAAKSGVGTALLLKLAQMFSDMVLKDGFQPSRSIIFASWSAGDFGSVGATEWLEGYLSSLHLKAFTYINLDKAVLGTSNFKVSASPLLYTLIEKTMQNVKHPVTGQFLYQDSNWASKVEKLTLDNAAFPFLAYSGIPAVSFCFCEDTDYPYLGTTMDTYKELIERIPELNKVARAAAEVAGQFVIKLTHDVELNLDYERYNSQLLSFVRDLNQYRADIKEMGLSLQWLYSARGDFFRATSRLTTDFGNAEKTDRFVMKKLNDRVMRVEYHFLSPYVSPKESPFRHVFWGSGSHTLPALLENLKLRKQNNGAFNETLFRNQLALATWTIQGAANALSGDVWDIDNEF

Test [2] addresses T2, recombinant mouse TfR-1 (mouse, UniProt Q62351 89-763).
T2 construct: Bought recombinant protein; also called mTfR1
Briefly: phage ELISA. On the procedure:
as §1
T2 sequence (Q62351 89-763 limits assumed): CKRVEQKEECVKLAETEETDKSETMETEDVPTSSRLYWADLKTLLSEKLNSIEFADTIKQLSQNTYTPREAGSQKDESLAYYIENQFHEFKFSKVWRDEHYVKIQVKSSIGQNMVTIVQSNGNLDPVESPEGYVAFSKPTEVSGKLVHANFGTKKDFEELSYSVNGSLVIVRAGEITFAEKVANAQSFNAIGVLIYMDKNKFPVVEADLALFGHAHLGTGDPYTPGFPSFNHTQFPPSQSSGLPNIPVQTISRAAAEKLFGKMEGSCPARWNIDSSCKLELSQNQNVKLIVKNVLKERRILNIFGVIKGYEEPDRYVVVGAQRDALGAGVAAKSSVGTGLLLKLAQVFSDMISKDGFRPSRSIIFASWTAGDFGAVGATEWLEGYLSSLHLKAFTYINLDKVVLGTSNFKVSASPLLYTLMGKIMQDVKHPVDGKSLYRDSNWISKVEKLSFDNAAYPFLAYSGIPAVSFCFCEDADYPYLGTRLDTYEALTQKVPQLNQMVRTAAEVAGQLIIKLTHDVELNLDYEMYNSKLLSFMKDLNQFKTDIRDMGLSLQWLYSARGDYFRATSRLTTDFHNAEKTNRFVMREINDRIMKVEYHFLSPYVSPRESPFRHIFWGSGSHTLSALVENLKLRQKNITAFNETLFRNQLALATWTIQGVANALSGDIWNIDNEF

Test [3] deals with T3, recombinant human TfR-1 (human, UniProt P02786 89-760).
T3 construct: also called hTfR1; human transferrin receptor-1
Description: phage ELISA, VNAR-phage on plate-coated recombinant human TfR-1.
T3 sequence (P02786 89-760 limits assumed): as the sequence (P02786 89-760) above

Test [4] has as its target T4, recombinant mouse TfR-1 (mouse, UniProt Q62351 89-763).
T4 construct: Coated at 1 ug/ml for the phage ELISA; also called mTfR1; mouse transferrin receptor-1
Description: phage ELISA, VNAR-phage on plate-coated recombinant mouse TfR-1.
T4 sequence (Q62351 89-763 limits assumed): as the sequence (Q62351 89-763 limits assumed) above

B1: Clone 31 (VNAR)
VNAR: ARVDQTPQTITKETGESLTINCVLRDSNCALSSTYWYRKKSDSTNEENISKGGRYVETVNSGSKSFSLKINDLTVEDSGTYRCNVQPLFCDLWLDVYGGGTVVTVNA
notes: VNAR on phage
For B1, the binding result in test [1] and in test [2] was “binds” throughout.

B2: Clone 26 (VNAR)
VNAR: ARVDQTPQTITKETGESLTINCVLRDSNCALSSTLWYRTKSGSRNEESISKGGRYVETVNSGSKSFSLKINDLTVEDSGTYRCNVCMGVTCNHVPDVYGGGTVVTVNA
notes: VNAR on phage
Consider B2, for which the binding result in test [1] and in test [2] was “binds” each time.

B3: Clone 7 (VNAR)
VNAR: ARVDQTPQTITKETGESLTINCVLRDNNCALSSTLWYRTKSGSRNEESISKGGRYVETVNSGSKSFSLRINDLTVEDSGTYRCNVQSWPPGNGWWCDVYGDGTAVTVNA
notes: VNAR on phage
Regarding B3, the binding result in test [1] and in test [2] was “binds” each time.

B4: Clone 28 (VNAR)
VNAR: ARVDQTPQTITKETGESLTINCVLRDSICALSSTHWYRKKSGSTNEESISKGGRYVETVNSGSKSFSLRINDLTVEDSGTYRCNVRTAQGTLCGDVSDVYGDGTAVTVNA
notes: VNAR on phage
B4: the binding result in test [1] and in test [2] was “binds” in each case.

B5: Clone 24 (VNAR)
VNAR: ARVDQTPQTITKETGESLTINCVLRDSNCALPSTYWYRKKSGSTNEESISKGGRYVETVNSGSKSFSLRINDLTVKDSGTYRCKVGPRCMGPNWQSYSCDVYGGGTVVTVNA
notes: VNAR on phage
For B5, the binding result in test [1] and in test [2] was “binds” each time.

B6: Clone 25 (VNAR)
VNAR: ARVDQTPRSVTKETGESLTINCVLRDSICALSSTYWYRKKSGSTNEESISKGGRYVETVNSGSKSFSLKINDLTVEDSGTYRCNVFTEMRGRCWAWGVDVYGDGTAVTVNA
notes: VNAR on phage
For the molecule B6, the binding result in test [1] and in test [2] was “binds” each time.

B7: Clone 3 (VNAR)
VNAR: ARVDQTPQTITKETGESLTINCVLRDSNCALPSTYWYRKKSGSTNEESISKGGRYVETVNSGSKSFSLRINDLTVKDSGTYRCNVVQEPYSCKGRDDVYGGGTAVTVNA
notes: VNAR on phage
Take B7: the binding result in test [1] and in test [2] was “binds” each time.

B8: Clone 4 (VNAR)
VNAR: ARVDQTPQTITKETGESLTINCVLRDSNCALPSTYWYRKKSGSTNEESISKGGRYVETVNSGSKSFSLRINDLTVKDSGTYRCKVMSQEVRWQMTCKIVVMDVYGGGTVVTVNA
notes: VNAR on phage
B8: the binding result in test [1] and in test [2] was “binds” throughout.

B9: Clone 5 (VNAR)
VNAR: ARVDQTPQTITKETGESLTINCVLRDSNCALSSTLWYRTKSGSRNEESISKGGRYVETVNSGSKSFSLRINDLTVKDSGTYRCNVQQYDCIASFDVYGDGTAVTVNA
notes: VNAR on phage
Turning to B9, the binding result in test [1] and in test [2] was “binds” each time.

B10: Clone 6 (VNAR)
VNAR: ARVDQTPQTVTKETGESLTINCVLRDSNCALSSTLWYRTKSGSRNEESISKGGRYVETVNSGSKSFSLRINDLTVEDSGTYRCNVCSNYCPIKDDVYGDGTAVTVNA
notes: VNAR on phage
In the case of B10, the binding result in test [1] and in test [2] was “binds” each time.

B11: Clone 8.149 (VNAR)
VNAR: ARVDQTPQTITKETGESLTINCVLRDSNCALPSTYWYRKKSGSTNEESISKGGRYVETVNSGSKSFSLRINDLTVEDSGTYRCKVIAQLSSILRGCNYHPHDVYGDGTAVTVNA
For the molecule B11, the “phage ELISA A450” value in test [3] turned out to be 0.052 A450; in test [4], 0.045 A450.

B12: Clone 8.152 (VNAR)
VNAR: ARVDQTPQTITKETGESLTINCVLRDSNCALPSTYWYRKKSGSTNEESISKGGRYVETVNSGSKSFSLRINDLTVEDSGTYRCKVMDQLSNMLRGCNYRKHDVYGDGTAVTVNA
In the case of B12, the “phage ELISA A450” value is 0.059 A450 in test [3] and 0.045 A450 in test [4].

B13: Clone 8.151 (VNAR)
VNAR: ARVDQTPQTITKETGESLTINCVLRDSNCALPSTYWYRKKSGSTNEESISKGGRYVETVNSGSKSFSLRINDLTVEDSGTYRCKVIAQLSSLERGCNYFQFDVYGDGTAVTVNA
With B13, the results for the “phage ELISA A450” value in test [3] and in test [4] were 0.048 A450 and 0.045 A450, respectively.

B14: Clone 8.153 (VNAR)
VNAR: ARVDQTPQTITKETGESLTINCVLRDSNCALPSTYWYRKKSGSTNEESISKGGRYVETVNSGSKSFSLRINDLTVEDSGTYRCKVIAQLAFGLRGCNYRKHDVYGDGTAVTVNA
For B14, the “phage ELISA A450” value stood at 0.048 A450 in test [3] and 0.044 A450 in test [4].

B15: Clone 8.150 (VNAR)
VNAR: ARVDQTPQTITKETGESLTINCVLRDSNCALPSTYWYRKKSGSTNEESISKGGRYVETVNSGSKSFSLRINDLTVEDSGTYRCKVIAQLSSILRGCNYNQQDVYGDGTAVTVNA
Turning to B15, the “phage ELISA A450” value in test [3] turned out to be 0.058 A450; in test [4], 0.045 A450.

B16: Clone 8.154 (VNAR)
VNAR: ARVDQTPQTITKETGESLTINCVLRDSNCALPSTYWYRKKSGSTNEESISKGGRYVETVNSGSKSFSLRINDLTVEDSGTYRCKVIAQLSSILRGCGGSKHDVYGDGTAVTVNA
With B16, the “phage ELISA A450” value in test [3] amounted to 0.055 A450; in test [4] it was 0.044 A450.

B17: Clone 23 (VNAR)
VNAR: ARVDQTPQTVTKETGESLTINCVLRDSNCDLSRTYWYRKKSGSTNEESISKGGRYVETVNSGSKSFSLRINDLTVEDSGTYRCNVGGDLCGDQRDVYGGGTAVTVNA
notes: VNAR on phage
On to B17, for which the binding result in test [1] and in test [2] was “binds” in each case.

B18: Clone 27 (VNAR)
VNAR: ARVDQTPRSVTKETGESLTINCVLRDASYALGSTCWYRKKSGSTNEESISKGGRYVETVNSGSKSFSLRINDLTVEDSGTYRCNVSRIGQYLCQARSDVYGDGTAVTVNA
notes: VNAR on phage
Take B18: the binding result in test [1] and in test [2] was “binds” in each case.

B19: Clone 29 (VNAR)
VNAR: ARVDQTPQTITKETGESLTINCVLRDSNCALSSTLWYRTKSGSRNEESISKGGRYVETVNSGSKSFSLRINDLTVEDSGTYRCNVQQGCESYNWMVDVYGGGTAVTVNA
notes: VNAR on phage
Take B19: the binding result in test [1] and in test [2] was “binds” in each case.

B20: Clone 30 (VNAR)
VNAR: ARVDQTPQTITKETGESLTINCVLRDSNCALSSTLWYRTKSGSRNEESISKGGRYVETVNSGSKSFSLKINDLTVEDSGTYRCNVWFADYYWFQYDVYGGGTAVTVNA
notes: VNAR on phage
Take B20: the binding result in test [1] and in test [2] was “binds” in each case.

B21: Clone 9 (VNAR)
VNAR: ARVDQTPQTITKETGESLTINCVLRDSNCALPSTWYRKKSDSTNEESISKGGRYVETVNSGSKSFSLRINDLTVKDSGTYRCKVLYPNCYRCMWGQVTDVYGGGTAVTVNA
notes: VNAR on phage
Turning to B21, the binding result in test [1] and in test [2] was “binds” in each case.
